The data set can be described thus: protein stability index of a GFP-peptide fusion (GPS, HEK-293T) (PSI 1-6); higher = more stable. The conditions noted are these: c terminus: a fixed tail appended.

For 36 sequences, protein stability index results are on record in the supplement of paper PMC10567573.

± gives the standard deviation.
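Further: 24-mer peptide tiles fused after GFP, lentivirally expressed, FACS-sorted into six equal bins by GFP/DsRed ratio, decoded by Illumina sequencing, PSI is the read-weighted mean bin number.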

As to DSLGGSQEMVQRPQPHRNRAGLDL [TRAF3IP2], the protein stability index runs as follows: (treatment: DMSO) 4.87 ± 0.23; (treatment: MLN4924 1 uM, 8 h) 4.58 ± 0.41.

As to DSMEGKRSPYAGLQLGAAKKPPVT [TRIM29], the protein stability index is 4.58 ± 0.35 (treatment: DMSO) and 4.52 ± 0.18 (treatment: MLN4924 1 uM, 8 h).

For the sequence DSSTSPKGKQPTSAENSVAKKEDK [NANOGP8], the protein stability index (treatment: DMSO) amounted to 5.57 ± 0.36 and the protein stability index (treatment: MLN4924 1 uM, 8 h) stood at 5.58 ± 0.19.

With DTNLGRLEDGQTPLHLSALRDDVL [ASB7], the protein stability index (treatment: DMSO) was found to be 4.59 ± 0.1 and the protein stability index (treatment: MLN4924 1 uM, 8 h) is 4.56 ± 0.21.

Consider DTQVNPVGSVSVDCGPSRADRCSP [FBXO34], for which the protein stability index amounted to 5.09 ± 0.32 (treatment: DMSO) and 5.15 ± 0.28 (treatment: MLN4924 1 uM, 8 h).

For DVCSFPNALVTKLLLDCGAEVNAV [FEM1B], the protein stability index is 2.48 ± 0.83 (treatment: DMSO) and 2.44 ± 0.48 (treatment: MLN4924 1 uM, 8 h).

As to DVDITLSSEAFHNYMNAAMVHINR [RTN3], the protein stability index is 2.18 ± 0.087 (treatment: DMSO) and 2.32 ± 0.25 (treatment: MLN4924 1 uM, 8 h).

As to DVGRYIDHYAAIKKAWDDLKKYLE [FBXO3], the protein stability index turned out to be 2.31 ± 0.34 (treatment: DMSO) and 2.97 ± 0.52 (treatment: MLN4924 1 uM, 8 h).

Take DVLLTLKHTVKEHECKLTQEILEL [IQUB]: the protein stability index stood at 2.12 ± 0.2 (treatment: DMSO) and 1.96 ± 0.47 (treatment: MLN4924 1 uM, 8 h).

As for DWYQKQTPTSPECDYSQYFKTIEE [KRT15], the protein stability index reads like this: (treatment: DMSO) 3.86 ± 0.23; (treatment: MLN4924 1 uM, 8 h) 3.97 ± 0.26.

As for EALLKLLAGLTRPDVRPPLGRGLV [SEPHS2], the protein stability index came to 2.22 ± 0.45 (treatment: DMSO) and 2.32 ± 0.24 (treatment: MLN4924 1 uM, 8 h).

Turning to EALRALQEGLWLDRGTRVVFIDFS [PKD2L1], the protein stability index reads like this: (treatment: DMSO) 2.3 ± 0.72; (treatment: MLN4924 1 uM, 8 h) 2.34 ± 0.35.

In the case of EAYTKICDPGLTAFEPEALGNLVE [CAMK2D], the protein stability index worked out at 3.91 ± 0.25 (treatment: DMSO) and 3.62 ± 0.27 (treatment: MLN4924 1 uM, 8 h).

Take ECDNMLMLLSVSQSMSEEEREKVT [SEPHS2]: the protein stability index (treatment: DMSO) was 4.58 ± 0.12 and the protein stability index (treatment: MLN4924 1 uM, 8 h) came to 4.58 ± 0.24.

ECKQLSESQVKSLCEKAKEILTKE [PPP2CA] had a protein stability index (treatment: DMSO) of 4.64 ± 0.2 and a protein stability index (treatment: MLN4924 1 uM, 8 h) of 4.82 ± 0.18.

For ECLKKFNARRKLKGAILTTMLATR [CAMK2B], the protein stability index runs as follows: (treatment: DMSO) 2.98 ± 0.32; (treatment: MLN4924 1 uM, 8 h) 2.94 ± 0.29.

As for EDEAGGRFVAFSGEGQSLRKKGRK [UFD1], the protein stability index by setting is: (treatment: DMSO) 5.51 ± 0.25; (treatment: MLN4924 1 uM, 8 h) 5.41 ± 0.46.

On to EDITKGTQSLPTASASKFPSSGPV [AUP1], for which the protein stability index worked out at 5.19 ± 0.19 (treatment: DMSO) and 5.08 ± 0.1 (treatment: MLN4924 1 uM, 8 h).

Take EDPFYWVSPGVLVLLAVLPVLLLQ [MOG]: the protein stability index runs as follows: (treatment: DMSO) 2.52 ± 0.41; (treatment: MLN4924 1 uM, 8 h) 2.38 ± 0.69.

On to EDQYEENSHLTSVPHWINSNTLGF [ETS2], for which the protein stability index amounted to 3.2 ± 0.34 (treatment: DMSO) and 3.13 ± 0.3 (treatment: MLN4924 1 uM, 8 h).

For EDRKLPAPGADVKVHRARKTMPKS [EHMT1], the protein stability index came to 5.28 ± 0.31 (treatment: DMSO) and 5.19 ± 0.18 (treatment: MLN4924 1 uM, 8 h).

On to EDRLSLKFLPSSEEDNDDAKILPS [DRICH1], for which the protein stability index reads like this: (treatment: DMSO) 5.34 ± 0.23; (treatment: MLN4924 1 uM, 8 h) 5.33 ± 0.11.

On to EDSKRWSKMDQLAKELTAEKRLEG [CHGA], for which the protein stability index stood at 4.97 ± 0.33 (treatment: DMSO) and 5.11 ± 0.26 (treatment: MLN4924 1 uM, 8 h).

Consider EDSYRKQVEVDAQQCMLEILDTAG [RAP1B], for which the protein stability index is, setting by setting: (treatment: DMSO) 4.62 ± 0.13; (treatment: MLN4924 1 uM, 8 h) 4.5 ± 0.14.

Regarding EDTDPSTLSFNMSDKYPIQDTELP [EDARADD], the protein stability index runs as follows: (treatment: DMSO) 5.11 ± 0.12; (treatment: MLN4924 1 uM, 8 h) 4.89 ± 0.089.

For EEEMNALRGQVGGEINVEMDAAPG [KRT17], the protein stability index runs as follows: (treatment: DMSO) 5.45 ± 0.34; (treatment: MLN4924 1 uM, 8 h) 5.53 ± 0.13.

Sequence EEERAQDRIATTDDTTAMASASSS [MAGEA10] had a protein stability index (treatment: DMSO) of 5.66 ± 0.17 and a protein stability index (treatment: MLN4924 1 uM, 8 h) of 5.42 ± 0.1.

In the case of EEERPLPEKEYQRQVWLLFEYPES [KCNA1], the protein stability index (treatment: DMSO) stood at 3.33 ± 0.12 and the protein stability index (treatment: MLN4924 1 uM, 8 h) was determined as 3.63 ± 0.28.

In the case of EEGFMTAELAGVIKRLWKDSGVQA [GNAI1], the protein stability index stood at 3.19 ± 0.49 (treatment: DMSO) and 3.53 ± 0.58 (treatment: MLN4924 1 uM, 8 h).

With EELNNGEPQTEHQQESESEIDSVP [MIA2], the protein stability index is, setting by setting: (treatment: DMSO) 5.6 ± 0.24; (treatment: MLN4924 1 uM, 8 h) 5.52 ± 0.43.

EELRKFSSLCYKQRIKSQERETEA [MOG]: the protein stability index worked out at 4.47 ± 0.28 (treatment: DMSO) and 4.22 ± 0.076 (treatment: MLN4924 1 uM, 8 h).

In the case of EEMAKSSRASAARVGQLQEALNER [LRRC45], the protein stability index (treatment: DMSO) was 4.97 ± 0.46 and the protein stability index (treatment: MLN4924 1 uM, 8 h) turned out to be 5.12 ± 0.28.

Turning to EETRVWHRRDGKWQNVHFHCSGAP [CAMK2B], the protein stability index turned out to be 3.1 ± 0.15 (treatment: DMSO) and 3.11 ± 0.32 (treatment: MLN4924 1 uM, 8 h).

As to EETTSQDWGTPRELTFSYIAFDGV [RTN2], the protein stability index by setting is: (treatment: DMSO) 2.65 ± 0.15; (treatment: MLN4924 1 uM, 8 h) 2.8 ± 0.61.

For the sequence EEVRQLLETMARNEVIADINCKGR [OSBPL1A], the protein stability index was 3.16 ± 0.33 (treatment: DMSO) and 3.01 ± 0.46 (treatment: MLN4924 1 uM, 8 h).

Consider EGATLLLRGLCANTVLRFLDLKGN [LRRC45], for which the protein stability index stood at 2.6 ± 0.4 (treatment: DMSO) and 2.98 ± 0.77 (treatment: MLN4924 1 uM, 8 h).
